# In the nanobody polyreactivity screen of Harvey et al. (2022):
# Test: yeast display, Sf9 membrane polyspecificity reagent, FACS + sequencing; frameworks hold sequencing errors
# Method in brief: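 Genes from sorted yeast were amplified by colony PCR, read by MiSeq 2 × 250 sequencing and filtered on CDR length. These cells carried a synthetic nanobody library in Saccharomyces cerevisiae BJ5465 and were sorted by FACS into low and high (top ~1%) gates on anti-HA and streptavidin fluorescence. Polyreactivity is labelled according to the gate of origin.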
row,Sequence,polyreactivity (PSR sort gate)
1,QVQLVESGGGLVQAGGSLRLSCAASGFTFVYYAMGWYRQAPGKERELVATITRSGDSTYYADSVKGRFTISRDNAKNTVYLQMNSLKPEDTAVYYCAAQPGTASYAGDGDSWGQGTQVTVSS,low polyreactivity
2,QVQLVESGGGLVQAGGSLRLSCAASGFTFWANAMGWYRQAPGKERELVAAISWSGGSTTYADSVKGRFTISRDNAKNTVYLQMNSLKPEDTAVYYCATDYGHYVTYRLSDYWGQGTQVTVSS,low polyreactivity
3,QVQLVESGGGLVQAGGSLRLSCAASGFTFWAYAMGWYRQAPGKERELVAPISWSGGITYYADSVKGRFTISRDNAKNTVYLQMNSLKPEDTAVYYCAADPYVLVWVEDYDYWVQGTQVTVSS,high polyreactivity
4,QVQLVESGGGLVQAGGSLRLSCAASGFTFWGNAMGWYRQAPGKEREMVAAITDTGSTNYADSVKGRCTISRDNAKNTVYLQMNSLKPEDTAVYYCAKDKAYYDWGQTNGYWGQGTQVTVSS,low polyreactivity
5,QVQLVESGGGLVQAGGSLRLSCAASGFTFWGYAMGWYRQAPGKERELVAGITRSGGNTYYADSVKGRFTISRDNAKNTVYLEMNSLKPEDSAVYYCAKRHFWNLTPYYFYRTIPDYYWGQGTQVTVSS,high polyreactivity
6,QVQLVESGGGLVQAGGSLRLSCAASGFTFWIYAMGWYRQAPGKERELVAVISRGGSTYYADSVKGRFTISRDNAKNTVYLQMNSMKPEDTAVYYCNAVGVRGYDYWGQGTQVTVSS,high polyreactivity
7,QVQLVESGGGLVQAGGSLRLSCAASGFTFWKYTMGWYRQAPGKERELVAAITNSGTSTYYADSVKGRFTISRDNAKNTVYLQMNSLKPEDTAVYYCARDNEPDYYSYPYDYWGQGTQVTVSS,low polyreactivity
8,QVQLVESGGGLVQAGGSLRLSCAASGFTFWLYAMGWYRQATGKEREFVAAISTSGGSTYADSVKGRFTISRDNAKNTVYLQMNSLKPEDTAVYYCNAGYLLYYDYHLFYWGQGTQVTVSS,low polyreactivity
9,QVQLVESGGGLVQAGGSLRLSCAASGFTFWPYAMGWYRQAPGKERELVAAITWSGGRTYYADSVKGRFTISRDNAKNTVYLQMNSLKPEDTAVYYCNVDAYGYRPYRYYYWGQGTQVTVSS,high polyreactivity
10,QVQLVESGGGLVQAGGSLRLSCAASGFTFWQYTMGWYRQAPGKERDFVASITSGVSTYYADSVKGSFTISRENAKNTVYLQMNSVKPEDTAVYYCAAYYYRRYLRGFFENWGQGTQVTVSS,high polyreactivity
11,QVQLVESGGGLVQAGGSLRLSCAASGFTFWRNTMGWYRQEPGKERELVAGISGSGGSTYYADSVKGRFTSSRDNAKNTVYLQMNSLKPEDTAVYYCAKEPNVGTWRRWRYNYCGQGTQVTVSS,high polyreactivity
12,QVQLVESGGGLVQAGGSLRLSCAASGFTFWRNVMGWYRQAPGKERELVAVISRGGSTNYADSVKGRFTISRDNAKNTVYLQMNRLKPEDTAVYYCPKYARGPSKVDYWGQGTQVTVSS,high polyreactivity
13,QVQLVESGGGLVQAGGSLRLSCAASGFTFWRYAKGWYRHAPGKERELVAAISSGGSTNYADSVKGRFTISRDNAKNTVYIQMNSLKPEDTAVYYCNARYYHKRSTRVIFPYDYWGQGTQVTVSS,high polyreactivity
14,QVQLVESGGGLVQAGGSLRLSCAASGFTFWRYAMGWYRQAPGKERELVAAISRSGGGTYYADSVKGRFTISRDNAKNTVYLQMNSLKPEDTAVYYCAAALYKGSGELDYWGQGTQVTVSS,high polyreactivity
15,QVQLVESGGGLVQAGGSLRLSCAASGFTFWRYAMGWYRQAPGKERELVAAISWRGSSTYYADSVKGRFTISRDNAKNTVYLQMNSLKPEDSAVYYCAARYITFNGYGYGYWGQGTQVTVSS,high polyreactivity
16,QVQLVESGGGLVQAGGSLRLSCAASGFTFWRYAMGWYRQAPGKERELVAAISYSGGSTYYADSVKGRFTISRDYAKNTVYLQMNSLKPEDTAVYYCNAETGYGVYRTKYGYWGQGTQVTVSS,high polyreactivity
17,QVQLVESGGGLVQAGGSLRLSCAASGFTFWRYGMGWYRQAPGKERELVASITSGGGTNYADSVKGRFTISRDNAKNTVYFQMNSLKPEDTAVYYCAATYPYSWVYSGYYYWGQGTQVTVSS,low polyreactivity
18,QVQLVESGGGLVQAGGSLRLSCAASGFTFWTYAMGWYRPAPGKERELVAAIDSGVSTYYADSVKGRFTISRDNAKNTVYLQMNSLKPEDTAVYYCNAGPSVTSGYDYDYWGQGTQVTVSS,low polyreactivity
19,QVQLVESGGGLVQAGGSLRLSCAASGFTFWTYAMGWYRQAPGKERELVAAIDSGGSTYYADSVKGRFTISRDNAKNTVYLQMNSLKPEDTAVYYCAKDVLAPYSRHDYWGQGTQVTVSS,low polyreactivity
20,QVQLVESGGGLVQAGGSLRLSCAASGFTFWTYAMGWYRQAPGKERELVAAIDSGGSTYYADSVKGRFTISRDNAKNTVYLQMNSLKPEDTAVYYCNAGPSVTSGYDYDYWGQGTQVTVSS,low polyreactivity
21,QVQLVESGGGLVQAGGSLRLSCAASGFTFWTYDMGWYRQAPGKERELVAAISTSGGSTYYADSVKGRFTISRDNAKNTVYLQMNSLKPEDTAVYYCAAYAIGEHFRARYGYWGQGTQVTVSS,high polyreactivity

row,Sequence,polyreactivity (PSR sort gate)
1,QVQLVESGGGLVQAGGSLRLSCAASGFTFWWYTMGWYRPAPGKERELVAAITSGGSTYYADSVKGRFTISRDNAKNTVYLQMNSLKPEDTAVYYCNVVPYLYGLDGYDYWGQGTQVTVSS,high polyreactivity
2,QVQLVESGGGLVQAGGSLRLSCAASGFTFWYYAMGWYRQAPGKERELVAAIDSGVTRTYYADSVKGRFTISRDNAKNTVYLQMNSLKPEDTAVYYCNADFVWRGDYWGQGTQVTVSS,low polyreactivity
3,QVQLVESGGGLVQAGGSLRLSCAASGFTFWYYAMGWYRQAPGKERELVARITSRGADTYADSVKGRFTISRDNAKNTVYLQKNSLKPEDTAVYYCNAEFGRARDDDYWGQGTQVTVSS,low polyreactivity
4,QVQLVESGGGLVQAGGSLRLSCAASGFTFYANAMGWYRQAPGKERELVAAIDESGTSTNYADSVKGRFTISRDNAKNTVYLQMNSQKPEDTAVYYCAADGNSTGVYLDGGEGFAYDYWGHGTQVTVSS,low polyreactivity
5,QVQLVESGGGLVQAGGSLRLSCAASGFTFYDNAMGWYRQAPGKERELVAAISSSGTRTYYADSVKGRFTISRDNAKNTVYLQMNSLKPEDTAVYYCAARGQAYSGDRMYYWGQGTQVTVSS,high polyreactivity
6,QVQLVESGGGLVQAGGSLRLSCAASGFTFYGNAMGWYRQAPGKERELVASISTYYADSVKGRFTISRDNAKNTVYLQMNSLKPEDTAVYYCAATHYDRTYYVIYDYWGQGTQVTVST,low polyreactivity
7,QVQLVESGGGLVQAGGSLRLSCAASGFTFYGYAMGWYRQAPGKERELVAAINSAGRTYYADSVKGRFTISRDNAKNTVYLQMNSLKPEDTAVYYCASKYVRGHGYWGQGTQVTVSS,high polyreactivity
8,QVQLVESGGGLVQAGGSLRLSCAASGFTFYGYAMGWYRQAPGKERELVAAISSRGSRTYYADSVKGRFTISRDNAKNTGYLQMNSLKPEDTAFYYCAVDKAITQGLYDYWGQGTQVTVSS,high polyreactivity
9,QVQLVESGGGLVQAGGSLRLSCAASGFTFYGYAMGWYRQAPGKERELVAAISSSGGRTYYADSVKGRFTISRDNAKNTVYLQMNSLKPEDTAVYYCAADYTSRDYYYWGQGTQVTVSS,high polyreactivity
10,QVQLVESGGGLVQAGGSLRLSCAASGFTFYGYAMGWYRQAPGKERELVAAISSSGTSTYYADSVKGRFTISRDNEKNTVYLQMNSLKPEDTAVYYCAKDFYRRYYSWGQGTQVTVSS,high polyreactivity
11,QVQLVESGGGLVQAGGSLRLSCAASGFTFYHNAMGWYRHAPGKERELVATITARGGRTYYADSVKGRFTISRDNAKNTVYLQMISLKPEDTAVYYCNVKASRGYTYEYDYWGQGTQVTVSS,high polyreactivity
12,QVQLVESGGGLVQAGGSLRLSCAASGFTFYIYAMGWYRQAPGKERELVAAITTSGDSTYYADSVKGRFTISRDNAKNTVYLQMNSLKPEDTAVYYCAAEYWYTYSWGQGTQVTVLS,low polyreactivity
13,QVQLVESGGGLVQAGGSLRLSCAASGFTFYKNAMGWYRQAPGKERELVAAISRSGGSTYYADSVKGRFTISRDNAKNTVYLKMNSLKPEDTAVYYWAKGYCNFYRSDYWGQGTHVTVSS,high polyreactivity
14,QVQLVESGGGLVQAGGSLRLSCAASGFTFYKYAMGWYRQAPGKEREFVASITVRTGSTSYADSVKGRFTISRDNAKNTVYLQMNSLKPEDTAVYYCAAETYYYSWYYLGYTYDYWGHGTQVTVSS,high polyreactivity
15,QVQLVESGGGLVQAGGSLRLSCAASGFTFYKYTMGWYRQAPGKERELVAAISARGGSTYYADSVKGRFTISRDNAKNTVYLQMNSLKPEDTAVYYCAADYWRTYGLGYDYWGQGTQVTVSS,high polyreactivity
16,QVQLVESGGGLVQAGGSLRLSCAASGFTFYKYVMGWYRQAPGKERELVAAITTSGGSTYFADSVKGRFTISRDNAKNSVYLEMNSLKPEDTAVYYCNARSLHTSEGDYWGQGSQVTVSS,low polyreactivity
17,QVQLVESGGGLVQAGGSLRLSCAASGFTFYLNAMGWYRQAPGKERELVAAISYSDGSTYYADSVKGRFTISRDNAKNTVYLQMNRLKPEDTAVYFCAADTTDPGGAYQLMDYWGQGTQVTVSS,high polyreactivity
18,QVQLVESGGGLVQAGGSLRLSCAASGFTFYLYAMGWYRHAPGKERELVAAISVDGGSTYYADSVKGRFTISRDNAKNTVYLQMNSLKPEDTAVYYCAARLYGRYRYDYWGQGTQVTVSS,low polyreactivity
19,QVQLVESGGGLVQAGGSLRLSCAASGFTFYLYTMGWYRQAPGKERELVAAISWRGGGTYYADSVKGRFTISRDNAKNTVYLQMNSLKPEDTAVYYCATVRTYARNDYWGQGTQVTVSS,high polyreactivity
20,QVQLVESGGGLVQAGGSLRLSCAASGFTFYLYTMGWYRQAPGNESELVATITSDGGTNYADSVKGRFTISRDNAKNTVYLQMNSLKPEDTAVYYFNAASRRGSRKQAKYDYWGQGTQVTVSS,low polyreactivity
